Assay results published in the Human Domainome abundance scans (Beltran et al. 2025).

B1: Ankyrin-3, residues 4094 to 4171; numbered along this chain, Q12955 (parent)
chain: MAIVADHLGLSWTELARELNFSVDEINQIRVENPNSLISQSFMLLKKWVTRDGKNATTDALTSVLTKINRIDIVTLLE

Variants of: B1
Test: abundance fitness (aPCA) (normalised: wild type 0, dead -1); higher = more abundant; growth selection in yeast, the domain comes from the species named
Details: Homo sapiens

Abundance fitness of substitutions, site by site:
L37: S -0.132; V 0.048; F -0.231; P -0.089; R -0.526; H -0.107; Q -0.032; G -0.413; C -0.15; Y -0.141; T -0.03; E 0.026; D -0.254; N -0.359; A -0.095; W -0.395; K -0.169; M -0.014
V23: W -0.049; T -0.023; Y -0.534; S -0.061
Q40: D -0.726; A -0.064; W -0.736; N -1.03; H -0.622; Y -0.672; V -0.894; F -0.74; T -0.725; K -0.35; G -0.74; R -0.407; L -0.833; I -0.663; C -0.127; S -0.312; P -0.646
E25: A -0.457; K -0.808; G -0.826; N -0.63; D 0.03; Y -0.792; T -0.334; W -0.887; F -0.771; H -0.859; L -0.862; M -0.739; I -0.754; P -0.957; Q -0.251; R -0.947; V -0.344
L44: E -0.902; A -0.391; D -0.695; C -0.116
V31: W -0.165; P -0.929; D 0.058; T 0.026; F -0.086; G -0.089; L 0.087; M -0.191; H 0.145; Y 0.057; K 0.044; A -0.07; S -0.006; R 0.041; Q 0.003; E -0.139; C 0.049
I26: V -0.076; M -0.544; Q -0.594; L -0.96; D -0.886; P -0.894; K -0.953; R -0.522; T -0.755; E -0.848; W -0.871; S -0.805; C -0.561
N27: K -0.112; T -0.174; Q 0.012; W -0.35; L -0.383; C -0.238; S -0.125; Y -0.149; A -0.082; E -0.191; D -0.272; G -0.798; F -0.244; P -0.926; V -0.373; R -0.11; H -0.06
M43: K -0.185; G 0.02; L -0.152; S 0.005; R -0.128; V -0.074; P -0.892; H 0.014; E 0.056; W -0.168; T 0.033; F -0.265; I -0.431; A 0.047; C 0.1; D 0.028
P34: F -0.479; H -0.268; R -0.26; D -0.268; V -1.11; G -0.299; Q -0.067; W -0.9; A -0.245; T -0.366; L -0.874; C -0.7; M -0.658; E -0.24; S -0.145; N -0.331; K -0.561
I38: K 0.05; Q -0.133; G -0.006; D -0.286; P -0.041; L -0.183; E 0.15; H -0.167; N 0.234; T -0.122; C -0.038; A -0.02; V 0.027; W -0.039; S 0.078; R 0.089; M 0.009
E32: T -0.155; N -0.074; H -0.396; C -0.249; P -0.593; A -0.039; R -0.126; D 0.011; Q -0.1; G -0.202; M -0.106; S -0.185; W -0.839; Y -0.278; I -0.621; V -0.316; K -0.48
R30: L -0.033; S -0.074; C -0.112; G -0.385; E -0.088; K -0.02; I 0.064; W -0.453; P -0.232; A -0.022; V -0.172; M 0.111; F -0.628; T -0.158; Y -0.061; Q -0.188
S36: C -0.184; V -0.952; H -0.295; P -0.878; M -0.778; G -0.28; E -0.172; T -0.297; N -0.044; K -0.626; Q -0.336; L -0.933; R -0.449; A -0.609; F -0.717; D 0.155
Q28: S -0.094; D 0.044; V -0.399; L -0.254; R -0.071; N -0.2; C -0.318; A 0.044; P -0.652; E 0.035; M -0.179; H -0.202; F -0.479; K -0.134; Y -0.298; I -0.479; W -0.768; T -0.223; G -0.264
I29: W -0.979; P -0.808; V -0.302; R -0.857; H -0.389; L -0.456; C -0.741; E -0.174; G -0.927; T -0.752; S -0.846; A -0.768; F -0.765
D24: V -0.341; N -0.197; C -0.342; T -0.152; P -0.352; Q 0.063; F -0.621; S -0.199; L -0.272; W -0.435; Y -0.228; E 0.053; H -0.068; K -0.195; M -0.424; I -0.4
F42: T 0.086; V 0.042; Q 0.074; A 0.043; R 0.188; S 0.174; Y 0.023; W 0.022; H 0.119; D 0.165; L -0.063; M 0.102; I -0.03; N 0.104; K 0.201; G 0.113
S39: W -0.47; R 0.001; Y -0.616; T -0.016; Q 0.087; N 0.142; C -0.011; G -0.048; L -0.184; H -0.084; A 0.05; V -0.209; P -0.685; D -0.013; K 0; M -0.071; E -0.103; F -0.434
N33: Q 0.093; K -0.208; R -0.148; M -0.143; Y -0.168; S -0.014; H -0.023; T -0.091; P -0.812; L -0.755; C 0.034; G -0.607; F -0.082; W -0.204; E 0.055
S41: M -0.815; I -0.74; G -0.047; N -0.748; P -0.972; R -0.725; C -0.538; A 0.032; F -0.815; V -0.851; T -0.211; Y -0.67; E -0.912
N35: P -0.665; D -0.053; F -0.499; R -0.128; K -0.329; Q -0.077; Y -0.307; I -0.337; A -0.215; C -0.212; T -0.018; V -0.48; W -0.487; G -0.065; S -0.174; L -0.626; E -0.082; H -0.266
